Molecular target: the molecule itself
Assay: fluorescence polarisation

B1: HaloTag-ABS3 (human talin-1 C-terminal actin-binding domain, residues 2,293 to 2,541, as a HaloTag fusion protein) (domain or fragment)
chain: TEWVDPEDPTVIAENELLGAAAAIEAAAKKLEQLKPRAKPKEADESLNFEEQILEAAKSIAAATSALVKAASAAQRELVAQGKVGAIPANALDDGQWSQGLISAARMVAAATNNLCEAANAAVQGHASQEKLISSAKQVAASTAQLLVACKVKADQDSEAMKRLQAAGNAVKRASDNLVKAAQKAAAFEEQENETVVVKEKMVGGIAQIIAAQEEMLRKERELEEARKKLAQIRQQQYKFLPSELRDEH
Question: With B1 as the protein, how does the Kd read?
Answer: 1900 ± 200 nM

Source: PMC8915792 (Proceedings of the National Academy of Sciences of the …, 2022)
